Source: US20180244758A1 (MAPP BIOPHARMACEUTICAL, published 2018)

Biological target: T1, RESTV GP (Reston virus (RESTV), UniProt Q66799 34-638)
T1 sequence: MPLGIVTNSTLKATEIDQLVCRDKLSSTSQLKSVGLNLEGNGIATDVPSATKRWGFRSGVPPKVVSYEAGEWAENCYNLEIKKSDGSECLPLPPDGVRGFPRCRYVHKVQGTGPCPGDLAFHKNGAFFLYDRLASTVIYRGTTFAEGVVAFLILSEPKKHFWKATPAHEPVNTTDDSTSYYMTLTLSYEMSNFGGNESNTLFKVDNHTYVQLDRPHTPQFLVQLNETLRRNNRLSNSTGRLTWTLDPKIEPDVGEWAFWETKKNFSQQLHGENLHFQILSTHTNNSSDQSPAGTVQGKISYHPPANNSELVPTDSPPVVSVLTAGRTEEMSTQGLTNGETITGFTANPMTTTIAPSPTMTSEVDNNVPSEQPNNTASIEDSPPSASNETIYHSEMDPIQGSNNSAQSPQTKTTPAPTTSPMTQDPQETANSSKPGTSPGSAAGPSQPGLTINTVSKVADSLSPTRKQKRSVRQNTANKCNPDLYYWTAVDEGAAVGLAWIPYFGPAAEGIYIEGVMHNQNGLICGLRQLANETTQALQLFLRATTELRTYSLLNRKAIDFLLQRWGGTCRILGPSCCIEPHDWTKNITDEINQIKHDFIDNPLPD
Assay: ELISA, GP antigen coated

B1: mAb PE-16 (antibody, V domains shown)
VH: QVQLVQSGAEVTKPGASVKVSCKASGYTFTTYYMHWVRQAPGQGLEWVGIINPSGGITRYAQKFQGRVTLTRDTSTTTVYMELSSLRSEDTAVYYCARDRYPVLFATDYGMDVWGQGTTVTVSS
VL: DIVMTQSPATLSLSPGERATLSCRASQSVSGYLAWYQQKPGQAPRLLIYDASNRATGIPARFSGSGSGTDFTLTISSLEPEDFAVYYCQQRSIWPPGVTFGGGTKVEIK
binding result: no binding (tested: 0.2 µg/ml)
